These are literature values, as cited in article PMC2589311.

Where two headings read alike, the source gives them in different places.

In data set [1] the target is IL-1 receptor (synovial cells) (Homo sapiens) (UniProt P14778).
Data set [2] addresses second IL-1 receptor, 68 kDa (RAJI cells) (Homo sapiens) (UniProt P27930).
The target of data set [3] is IL-1 receptor (synovial cells) (Homo sapiens) (UniProt P14778). This is another data set of the same source.

Sequence of UniProt P14778 (P14778 18-569): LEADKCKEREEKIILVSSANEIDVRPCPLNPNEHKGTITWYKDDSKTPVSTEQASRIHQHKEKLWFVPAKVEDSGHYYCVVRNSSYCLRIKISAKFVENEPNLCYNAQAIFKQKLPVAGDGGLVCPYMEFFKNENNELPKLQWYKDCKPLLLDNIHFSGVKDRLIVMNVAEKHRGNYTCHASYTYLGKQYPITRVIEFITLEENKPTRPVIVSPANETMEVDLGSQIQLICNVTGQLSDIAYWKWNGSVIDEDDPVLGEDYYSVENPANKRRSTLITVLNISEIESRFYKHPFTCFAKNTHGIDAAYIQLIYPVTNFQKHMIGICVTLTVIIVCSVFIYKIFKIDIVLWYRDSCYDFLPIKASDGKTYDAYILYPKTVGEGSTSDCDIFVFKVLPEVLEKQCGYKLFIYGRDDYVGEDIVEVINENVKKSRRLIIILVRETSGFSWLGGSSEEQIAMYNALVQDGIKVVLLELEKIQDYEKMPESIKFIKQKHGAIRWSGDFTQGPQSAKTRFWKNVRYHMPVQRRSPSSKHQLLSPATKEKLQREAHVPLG
Sequence of UniProt P27930 (P27930 14-398): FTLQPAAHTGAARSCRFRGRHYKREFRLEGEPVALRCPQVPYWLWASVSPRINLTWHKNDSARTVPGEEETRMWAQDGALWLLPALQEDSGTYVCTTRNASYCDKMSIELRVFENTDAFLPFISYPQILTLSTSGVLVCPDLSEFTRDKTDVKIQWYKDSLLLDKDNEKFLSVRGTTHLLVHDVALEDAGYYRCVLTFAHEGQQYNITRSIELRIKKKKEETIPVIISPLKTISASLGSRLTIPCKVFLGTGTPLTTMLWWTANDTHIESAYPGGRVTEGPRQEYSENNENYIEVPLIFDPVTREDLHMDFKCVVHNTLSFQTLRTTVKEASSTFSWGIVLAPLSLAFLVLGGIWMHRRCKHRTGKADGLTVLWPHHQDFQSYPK

As to IL-1beta (from UniProt P01584), the Kd (commonly the constant that tells how readily two partners part at equilibrium) was 0.004 nM in data set [1] and 2.2 nM in data set [2].

IL-1alpha (from UniProt P01583): in data set [3], the Kd is 0.066 nM.
